Paper PMC9972897 (Science immunology, 2023)
Like-named read-outs stand apart in the source and are kept apart here.

B1: fp.007 monoclonal antibody (IgG) (antibody, V domains shown)
VH: EVQLVESGGGLVKPGGSLRLSCAGTGFIFSDAWMTWVRQAPGKGLEWVGRIKSKADGGTTDYAAPVKGRFTISRDDSKNTLYLEINSLKTEDTAVYYCTTGRSRYCIGAVCYYFDHWGQGTLVTVSS
VL: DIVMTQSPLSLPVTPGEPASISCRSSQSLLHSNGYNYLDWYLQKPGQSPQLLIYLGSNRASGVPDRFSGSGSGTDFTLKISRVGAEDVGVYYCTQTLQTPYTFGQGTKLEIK
B2: fp.006 monoclonal antibody (IgG) (antibody, V domains shown)
VH: EVQLVESGGGVVQPGGSLRLSCAASGFNFNNYALHWVRQAPGKGLEWVAIISYEARNKKYGVSVMGRFSISRDNSKSIMYLEMNSLRVEDTGVYYCARDLFLSDYDRSGYDPTRGGFDHWGQGTLVTVSS
VL: EIVMTQSPATLSVSPGERATLSCRASQSVSSSLAWYQHRFGQAPRLLISGASTRATGIPGRFSGSGSGTEFTLTISSLQSEDVAVYYCQQYGDWPLVTFGGGTKVEIK
B3: fp.006 Fab (Fab, V domains shown)
VH: B2 VH
VL: B2 VL
B4: fp.009 (antibody, V domains shown)
VH: VQLVESGGGVVQPGTSLTLSCEASGFTFSNYAMHWVRQAPGKGLEWVAIISFDTRNKKFAGSVQGRFSISRDNAKNSIYLQMNNLRPEDTGIYYCARDVFLSDYDSRGFDRTRGGFDYWGQGTLVTVSS
VL: EIVMTQSPATLSVSPGEKATLSCRASESVGSSLAWYQQKLGQAPRLLIYGASTRATGIPARFSGSGSGAEFTLTISSLQSEDFAIYYCQQYGDWPLLTFGGGTKVEIK
B5: hr2.023 monoclonal antibody (IgG) (antibody, V domains shown)
VH: QVQLVQSGAEVKKPGASVKVSCRASENIFSDSYLHWVRQAPGQGLEWMGIITPSGDKTFYAQQFQGRLTMTRDTPTNTLHMDLRGLTSADTAIYYCARQATKGGWDYWGQGTLVTVSS
VL: EIVLTQSPGTLSLSPGESATLSCRASQSVTRNYLAWYQQQPGQAPRLLIYGASNRATGVPDRFSGSGSGTDFTLTISRLEPEDFAVYYCQQYGSSPPTFIFGPGTKVDIK
B6: hr2.016 monoclonal antibody (IgG) (antibody, V domains shown)
VH: EVQLLESGGGLVQPGGSLRLSCAASGFMFSKYAMTWVRQTPGKGLEWVSVISGGGGSTYYADSVKGRFTISRDNSKNTLYLQMNSLRAEDTAVYYCAKLLVVFVIDYWGQGALVTVSS
VL: EIVLTQSPGTLSLSPGERATLFCRASQSVSSNLAWYQQKPGRAPRLLISGASSRATGIPDRFSGSGSGTDFTLTISRLEPEDFAVYYCQQYGSSPPTFGQGTKVEIK
B7: sd1.040 monoclonal antibody (IgG) (antibody, V domains shown)
VH: QVQLVQSGAEVKKPGASVKVSCKASGYTFTSFYIHWVRQAPGQGLEWMGIIDPSGGSTSYPQKFQGRVTMTRDTSTSTVYMDLSSLRSEDTAVYYCTRDGSAGDNSWFDPWGQGTLVTVSS
VL: not shown
B8: sd1.040 Fab (Fab, V domains shown)
VH: B7 VH
VL: not shown

Columns and labels:
[1] = target: T1, SARS-CoV-2 S (ancestral), C-terminally truncated, expressed on 293T cells (SARS-CoV-2 (ancestral, Wuhan-Hu-1), UniProt P0DTC2); assay: flow cytometry on cells; settings: one partner purified
[2] = target: T1, SARS-CoV-2 S (ancestral), C-terminally …; assay: cell-based or functional assay
[3] = target: T2, SARS-CoV-2 fusion peptide (FP) coldspot peptide, 812-831 (SARS-CoV-2 (ancestral), biotin-Ahx at the N-terminus; C-terminal amidation); assay: crystal structure; settings: both partners purified
[4] = target: SARS-CoV-2 S-2P ectodomain trimer (ancestral) (SARS-CoV-2 (ancestral, MN908947), stabilised)
[5] = target: T2, SARS-CoV-2 fusion peptide (FP) coldspot …
[6] = target: SD1-RBD of SARS-CoV-2 S (ancestral), aa 319-591 (SARS-CoV-2, ancestral (Wuhan-Hu-1; …, UniProt P0DTC2); assay: SPR; settings: both partners purified

Binder	IC50 of neutralisation of SARS-CoV-2 pseudovirus [2] [µg/mL]	fold increase of binding (gMFI) with soluble ACE2 [1] [fold]	other results
B1			binding result [1]: binds
B2	0.737	5.8	
B3			binding result [3]: binds
B4			binding result [4]: binds; binding result [5]: binds
B5		2.4	
B6	0.01	2.3	
B7	0.245		
B8			Kd [6]: 4.2 nM
